# Experimental data reported in publication doi:10.1101/2021.10.10.463828 (bioRxiv, 2021).
# B1: Tim23, overexpressed (natural protein)
# chain: MSWLFGDKTPTDDANAAVGGQDTTKPKELSLKQSLGFEPNINNIISGPGGMHVDTARLHPLAGLDKGVEYLDLEEEQLSSLEGSQGLIPSRGWTDDLCYGTGAVYLLGLGIGGFSGMMQGLQNIPPNSPGKLQLNTVLNHITKRGPFLGNNAGILALSYNIINSTIDALRGKHDTAGSIGAGALTGALFKSSKGLKPMGYSSAMVAAACAVWCSVKKRLLEK
# B2: Tim17 with an affinity tag, overexpressed (natural protein)
# chain: MSADHSRDPCPIVILNDFGGAFAMGAIGGVVWHGIKGFRNSPLGERGSGAMSAIKARAPVLGGNFGVWGGLFSTFDCAVKAVRKREDPWNAIIAGFFTGGALAVRGGWRHTRNSSITCACLLGVIEGVGLMFQRYAAWQAKPMAPPLPEAPSSQPLQA
# modifications: disulfide bond between Cys10 and Cys77
# Legend:
# [1] = target: B1; assay: cryo-EM structure
# [2] = target: Tim17 with an affinity tag, overexpressed (S. cerevisiae) (UniProt P39515); assay: cryo-EM structure
# [3] = target: B2; assay: cryo-EM structure
# [4] = target: B1; assay: pull-down
molecule,measurement,setting,value
"Tim44, overexpressed (natural protein)",stoichiometry N,[1],1
same,stoichiometry N,[2],1
B1,stoichiometry N,[3],1
B2,binding result,[4],binds
